Measurements published in article PMC7596504 (2020).

Target: T1, MORC4 ATPaseCW cassette (aa 29-486) (human, UniProt Q8TE76 29-486)
T1 chain: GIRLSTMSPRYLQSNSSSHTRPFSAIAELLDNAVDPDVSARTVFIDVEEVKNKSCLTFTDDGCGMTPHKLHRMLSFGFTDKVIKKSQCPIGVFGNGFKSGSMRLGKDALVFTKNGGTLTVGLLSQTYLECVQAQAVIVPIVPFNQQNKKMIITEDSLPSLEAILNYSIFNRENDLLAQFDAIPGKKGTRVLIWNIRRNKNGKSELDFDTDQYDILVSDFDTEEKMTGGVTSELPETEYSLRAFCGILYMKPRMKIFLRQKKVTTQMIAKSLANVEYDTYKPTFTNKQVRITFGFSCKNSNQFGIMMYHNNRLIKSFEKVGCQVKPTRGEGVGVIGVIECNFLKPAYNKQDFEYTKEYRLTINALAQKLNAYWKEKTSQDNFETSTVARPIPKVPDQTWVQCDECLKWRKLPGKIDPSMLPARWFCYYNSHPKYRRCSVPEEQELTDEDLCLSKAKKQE

## ARTKQTARKSTG [unmodified histone H3 peptide (aa 1-12 of H3)]
  Kd: 12 µM
